# Data: article PMC5700975
# B1: GST-Rab5 wild-type [canine] / Myc3-iSH2-p110β (wild type) [bovine | human] (parent)
# chain 1: LYEDYTRTSQEIQMKRTAIEAFNETIKIFEEQCQTQERYSKEYIEKFKREGNETEIQRIMHNYEKLKSRISEIVDSRRRLEEDLKKQAAEYREIDKRMNSIKGGGGGGGMCFSFIMPPAMADILDIWAVDSQIASDGSIPVDFLLPTGIYIQLEVPREATISYIKQMLWKQVHNYPMFNLLMDIDSYMFACVNQTAVYEELEDETRRLCDVRPFLPVLKLVTRSCDPGEKLDSKIGVLIGKGLHEFDSLKDPEVNEFRRKMRKFSEEKILSLVGLSWMDWLKQTYPPEHEPSIPENLEDKLYGGKLIVAVHFENCQDVFSFQVSPNMNPIKVNELAIQKRLTIHGKEDEVSPYDYVLQVSGRVEYVFGDHPLIQFQYIRNCVMNRALPHFILVECCKIKKMYEQEMIAIEAAINRNSSNLPLPLPPKKTRIISHVWENNNPFQIVLVKGNKLNTEETVKVHVRAGLFHGTELLCKTIVSSEVSGKNDHIWNEPLEFDINICDLPRMARLCFAVYAVLDKVKTKKSTKTINPSKYQTIRKAGKVHYPVAWVNTMVFDFKGQLRTGDIILHSWSSFPDELEEMLNPMGTVQTNPYTENATALHVKFPENKKQPYYYPPFDKIIEKAAEIASSDSANVSSRGGKKFLPVLKEILDRDPLSQLCENEMDLIWTLRQDCREIFPQSLPKLLLSIKWNKLEDVAQLQALLQIWPKLPPREALELLDFNYPDQYVREYAVGCLRQMSDEELSQYLLQLVQVLKYEPFLDCALSRFLLERALGNRRIGQFLFWHLRSEVHIPAVSVQFGVILEAYCRGSVGHMKVLSKQVEALNKLKTLNSLIKLNAVKLNRAKGKEAMHTCLKQSAYREALSDLQSPLNPCVILSELYVEKCKYMDSKMKPLWLVYNNKVFGEDSVGVIFKNGDDLRQDMLTLQMLRLMDLLWKEAGLDLRMLPYGCLATGDRSGLIEVVSTSETIADIQLNSSNVAAAAAFNKDALLNWLKEYNSGDDLDRAIEEFTLSCAGYCVASYVLGIGDRHSDNIMVKKTGQLFHIDFGHILGNFKSKFGIKRERVPFILTYDFIHVIQQGKTGNTEKFGRFRQCCEDAYLILRRHGNLFITLFALMLTAGLPELTSVKDIQYLKDSLALGKSEEEALKQFKQKFDEALRESWTTKVNWMAHTVRKDYRS
# chain 2: ANRGATRPNGPNTGNKICQFKLVLLGESAVGKSSLVLRFVKGQFHEFQESTIGAAFLTQTVCLDDTTVKFEIWDTAGQERYHSLAPMYYRGAQAAIVVYDITNEESFARAKNWVKELQRQASPNIVIALSGNKADLANKRAVDFQEAQSYADDNSLLFMETSAKTSMNVNEIFMAIAKKLPKNEPQNPGANSARGRGVDLTEPTQPTRSQCCSN
# Variants of: B1
# Experiment: GST pull-down (summary table)
# Conditions: with Myc3-iSH2-p110β (wild type) [bovine | human]; n=9; parent: 100
row,percent of parent,Variant
1,< 25 % binding,chain 2 E79R
2,< 25 % binding,chain 2 H82E

# Same assay, conditions: with Myc3-iSH2-p110β (wild type) [bovine | human]; n=5; parent: 100
row,percent of parent,Variant
1,< 25 % binding,chain 2 M87A
2,< 25 % binding,chain 2 W73A
3,< 25 % binding,chain 2 F56A

# Same assay, conditions: with Myc3-iSH2-p110β (wild type) [bovine | human]; n=10; parent: 100
row,percent of parent,Variant
1,< 25 % binding,chain 2 L84A

# Same assay, conditions: with Myc3-iSH2-p110β (wild type) [bovine | human]; n=4; parent: 100
row,percent of parent,Variant
1,< 25 % binding,chain 2 I52A
2,< 25 % binding,chain 2 R90E

# Same assay, conditions: with Myc3-iSH2-p110β (wild type) [bovine | human]; n=7; parent: 100
row,percent of parent,Variant
1,< 25 % binding,chain 2 Y88A
2,< 25 % binding,chain 2 Q78L

# Same assay, conditions: with Myc3-iSH2-p110β (wild type) [bovine | human]; n=8; parent: 100
row,percent of parent,Variant
1,< 25 % binding,chain 2 R80E

# Variants of: B1
# Experiment: GST pull-down, anti-Myc immunoblot quantification
# Conditions: with Myc3-iSH2-p110β (wild type) [bovine | human]; GST-Rab5 fusion proteins (10 µg) on glutathione Sepharose beads, GppCp-loaded; Myc-iSH2-p110β from transfected COS-1 lysates; parent: 100; read off a plot
row,percent of parent,Variant
1,20 % WT,chain 2 Q78L

# Variants of: B1
# Experiment: GST pull-down (summary table)
# Conditions: with Myc3-iSH2-p110β (wild type) [bovine | human]; n=6; parent: 100
row,percent of parent,Variant
1,< 25 % binding,chain 2 Y81A
